Measured values published in US20190248900A1 (Y BIOLOGICS, published 2019).

Key:
Assay in all cases: ELISA
TNFSF8 = molecular target: T1, TNFSF8 (Homo sapiens (Human), UniProt P32971 63-234)
T1 sequence: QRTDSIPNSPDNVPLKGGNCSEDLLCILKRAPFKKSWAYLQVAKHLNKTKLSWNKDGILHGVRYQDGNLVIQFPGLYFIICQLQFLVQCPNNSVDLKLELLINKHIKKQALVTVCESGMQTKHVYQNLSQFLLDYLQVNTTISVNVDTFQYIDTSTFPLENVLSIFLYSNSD

OSTM1 = molecular target: T2, OSTM1 (Homo sapiens (Human), UniProt Q86WC4 32-284)
T2 sequence: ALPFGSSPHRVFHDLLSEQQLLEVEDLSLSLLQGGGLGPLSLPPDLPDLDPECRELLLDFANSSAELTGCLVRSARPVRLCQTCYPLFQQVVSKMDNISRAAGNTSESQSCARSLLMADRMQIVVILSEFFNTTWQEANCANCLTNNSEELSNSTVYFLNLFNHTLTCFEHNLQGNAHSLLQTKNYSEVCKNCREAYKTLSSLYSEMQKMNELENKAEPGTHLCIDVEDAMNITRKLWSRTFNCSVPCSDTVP

DKK1 = molecular target: T3, DKK1 (Homo sapiens (Human), UniProt O94907 32-266)
T3 sequence: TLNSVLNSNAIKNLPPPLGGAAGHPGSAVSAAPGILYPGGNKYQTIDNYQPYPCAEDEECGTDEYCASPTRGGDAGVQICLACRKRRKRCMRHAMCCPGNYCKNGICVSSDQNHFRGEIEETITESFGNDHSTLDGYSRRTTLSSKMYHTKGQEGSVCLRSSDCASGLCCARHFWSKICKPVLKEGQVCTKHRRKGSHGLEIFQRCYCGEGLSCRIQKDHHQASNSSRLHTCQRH

LRRN1 = LRRN1 (Homo sapiens (Human), UniProt Q6UXK5 26-631)
SPOCK1 = molecular target: T4, SPOCK1 (Homo sapiens (Human), UniProt Q08629 22-439)
T4 sequence: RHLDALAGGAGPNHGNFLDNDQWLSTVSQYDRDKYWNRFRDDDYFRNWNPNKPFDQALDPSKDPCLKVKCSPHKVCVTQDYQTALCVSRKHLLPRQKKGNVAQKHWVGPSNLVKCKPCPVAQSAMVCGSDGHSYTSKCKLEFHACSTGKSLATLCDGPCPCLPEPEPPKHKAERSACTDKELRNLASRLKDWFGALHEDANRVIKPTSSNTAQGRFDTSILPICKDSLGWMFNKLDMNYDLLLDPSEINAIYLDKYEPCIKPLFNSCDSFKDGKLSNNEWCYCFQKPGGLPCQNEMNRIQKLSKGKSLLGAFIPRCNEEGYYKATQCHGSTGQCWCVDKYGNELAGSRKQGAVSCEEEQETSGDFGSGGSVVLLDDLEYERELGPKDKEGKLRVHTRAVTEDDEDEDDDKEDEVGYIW

CD209 = molecular target: T5, CD209 (Homo sapiens (Human), UniProt Q9NNX6 59-404)
T5 sequence: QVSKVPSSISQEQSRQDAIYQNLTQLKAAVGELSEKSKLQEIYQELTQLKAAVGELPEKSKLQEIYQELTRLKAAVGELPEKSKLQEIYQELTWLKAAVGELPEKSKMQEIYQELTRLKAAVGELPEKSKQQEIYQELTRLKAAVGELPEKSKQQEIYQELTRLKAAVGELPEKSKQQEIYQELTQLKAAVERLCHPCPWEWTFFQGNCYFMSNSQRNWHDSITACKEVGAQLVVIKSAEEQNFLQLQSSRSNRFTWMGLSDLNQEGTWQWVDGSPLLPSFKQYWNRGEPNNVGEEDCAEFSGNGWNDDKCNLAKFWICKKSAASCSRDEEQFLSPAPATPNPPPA

CFC1 = CFC1 (Homo sapiens (Human), UniProt P0CG37 26-158)
SPOCK2 = molecular target: T6, SPOCK2 (Homo sapiens (Human), UniProt Q92563 23-424)
T6 sequence: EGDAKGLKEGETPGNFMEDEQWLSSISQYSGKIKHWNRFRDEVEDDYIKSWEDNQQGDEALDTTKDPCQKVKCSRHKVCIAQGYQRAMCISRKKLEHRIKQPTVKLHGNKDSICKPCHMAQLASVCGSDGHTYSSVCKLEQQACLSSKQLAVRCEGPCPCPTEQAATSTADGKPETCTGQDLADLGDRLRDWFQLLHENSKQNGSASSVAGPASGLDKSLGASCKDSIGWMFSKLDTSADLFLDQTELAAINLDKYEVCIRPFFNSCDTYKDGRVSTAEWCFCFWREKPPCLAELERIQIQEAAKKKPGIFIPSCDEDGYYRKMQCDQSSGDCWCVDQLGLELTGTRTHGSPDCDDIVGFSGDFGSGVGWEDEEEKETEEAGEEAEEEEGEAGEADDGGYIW

Measured: binding result

LRRN1, sequence (Q6UXK5 26-631 limits assumed): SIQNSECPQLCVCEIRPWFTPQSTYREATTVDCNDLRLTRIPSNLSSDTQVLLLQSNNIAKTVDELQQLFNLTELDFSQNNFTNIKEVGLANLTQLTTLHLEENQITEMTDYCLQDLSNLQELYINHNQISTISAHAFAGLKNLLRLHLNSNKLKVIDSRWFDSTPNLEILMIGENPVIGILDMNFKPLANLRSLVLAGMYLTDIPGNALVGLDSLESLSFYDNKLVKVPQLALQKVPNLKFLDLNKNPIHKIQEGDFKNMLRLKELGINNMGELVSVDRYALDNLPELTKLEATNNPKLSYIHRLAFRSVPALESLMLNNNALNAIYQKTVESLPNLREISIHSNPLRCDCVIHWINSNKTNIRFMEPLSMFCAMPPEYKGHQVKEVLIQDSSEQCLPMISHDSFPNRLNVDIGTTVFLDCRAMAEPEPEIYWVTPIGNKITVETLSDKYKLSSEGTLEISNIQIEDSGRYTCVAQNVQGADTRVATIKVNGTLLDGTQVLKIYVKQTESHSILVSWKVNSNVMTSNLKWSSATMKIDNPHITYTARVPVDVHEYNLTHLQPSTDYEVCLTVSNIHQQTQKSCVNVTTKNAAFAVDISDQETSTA
CFC1, sequence (P0CG37 26-158 limits assumed): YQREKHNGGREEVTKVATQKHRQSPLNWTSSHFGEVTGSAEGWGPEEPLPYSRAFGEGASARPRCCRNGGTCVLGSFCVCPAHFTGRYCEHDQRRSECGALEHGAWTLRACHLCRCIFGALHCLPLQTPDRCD

B1: PD1-45D6 (antibody, V domains shown)
VH: QVQLVESGGGVVQPGRSLRLSCAASGFTFSSYAMHWVRQVPGKGLEWVAVISYDGNDKYYADSVKGRFTISRDNSKNTLYLQMNSLRAEDTAVYYCVPTTFEYWGQGSQVTVSS
VL: DIVMTQTPLSLPVTPGEAASISCRSSQSLLDSDDGKTYLDWYLQKPGQSPQLLIYTLSYRASGVPDRFSGSGSGTEFNLRISRVEAEDVGIYYCMQRVEFPFTFGQGTKLDIK
notes: scFv-phage in the screening ELISA; whole IgG in the other assays
no binding (tested: 1 ug/ml): all assays above

B2: PD1-41C9 (antibody, V domains shown)
VH: QMQLVESGGGVVQPGRSLRLSCAASGFTFSSYAMHWVRQAPGKGLEWVAVISYDGSNKYYADSVKGRFTISRDNSKNTLYLQMNRLRSEDTAVYYCTTTTFDSWGQGTLITVSS
VL: DIVMTQTPLSLPVTPGEAASISCRSSQSLLDSEDGNTYLDWYLQKPGQSPQLLIYTLSHRASGVPDRFSGSGSGTDFTLKISRVAAEDVGLYYCLQRMGFPYTFGQGTKLDIK
notes: as for B1
no binding (tested: 1 ug/ml): all assays above

B3: PD1-49A2 (antibody, V domains shown)
VH: QVQLVESGGGVVQPGRSLRLSCAASGFTFSSYAMHWVRQAPGKGLEWVAVISYDGSNKYYADSVKGRFTISRDNPKNTLYLQMNSLRAEDTAVYYCTTTTFDSWGRGTLVTVSS
VL: DIVMTQSPLSLPVTPGEPASISCRSSQSLFDSDDGNTYLDWYLQKPGQSPQLLIYTLSHRASGVPDRFSGSGSGTDFTLKISRVEAEDVGIYYCLQRMGFPYTFGQGTKVEIK
notes: scFv-phage in the screening ELISA; whole IgG in the other assays; also called Parent 49A2
no binding (tested: 1 ug/ml): all assays above
